Test results reported in patent US10500249B2, “Compositions and methods for preventing or treating diseases, conditions, or processes characterized by aberrant fibroblast proliferation and extracellular matrix deposition” (MOERAE MATRIX, INC., priority 2014, dated 2019).

Assays:
Experiment in all cases: Kinase Profiling Assay
Format in all cases: biochemical
Conditions in all cases: 100 μM
[1] = target: T1, CDK2/cyclinE (h) (Homo sapiens, UniProt P24941)
T1 construct: purchased Millipore
Summary of the method: (§1)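 Measured twice per kinase, activity in presence of MK2 inhibitory peptide was calculated against a 100% activity control after radiometric phosphorylation of a cationic substrate, anionic filter capture and scintillation counting; one of 266 human kinases profiled for specificity.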

[2] = target: T2, EphA1 (h) (Homo sapiens, UniProt P21709)
T2 construct: purchased Millipore
T2 sequence (P21709 26-976): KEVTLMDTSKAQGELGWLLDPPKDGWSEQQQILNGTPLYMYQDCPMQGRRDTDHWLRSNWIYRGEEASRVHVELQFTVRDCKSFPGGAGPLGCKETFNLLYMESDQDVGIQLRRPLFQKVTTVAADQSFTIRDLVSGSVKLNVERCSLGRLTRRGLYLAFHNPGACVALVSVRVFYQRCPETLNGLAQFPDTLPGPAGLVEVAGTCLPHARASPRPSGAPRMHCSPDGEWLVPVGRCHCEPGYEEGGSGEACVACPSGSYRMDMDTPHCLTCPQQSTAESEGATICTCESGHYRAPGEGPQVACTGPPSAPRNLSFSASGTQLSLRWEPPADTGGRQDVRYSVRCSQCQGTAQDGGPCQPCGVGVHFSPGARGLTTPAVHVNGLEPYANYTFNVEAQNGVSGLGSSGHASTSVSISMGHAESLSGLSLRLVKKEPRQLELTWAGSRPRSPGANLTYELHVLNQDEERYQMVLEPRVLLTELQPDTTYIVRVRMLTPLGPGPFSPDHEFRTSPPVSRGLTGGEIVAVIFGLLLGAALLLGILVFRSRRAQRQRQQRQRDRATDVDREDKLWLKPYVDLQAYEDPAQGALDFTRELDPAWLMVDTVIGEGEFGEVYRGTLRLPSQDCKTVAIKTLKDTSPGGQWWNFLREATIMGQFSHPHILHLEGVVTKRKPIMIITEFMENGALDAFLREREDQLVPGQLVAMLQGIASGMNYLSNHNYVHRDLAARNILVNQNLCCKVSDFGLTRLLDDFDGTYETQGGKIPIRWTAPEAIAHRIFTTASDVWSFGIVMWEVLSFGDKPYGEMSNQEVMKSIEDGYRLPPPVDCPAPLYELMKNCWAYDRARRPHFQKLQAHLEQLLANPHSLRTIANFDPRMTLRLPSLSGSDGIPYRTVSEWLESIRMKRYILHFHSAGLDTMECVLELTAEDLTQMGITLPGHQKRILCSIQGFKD
Summary of the method: as §1

[3] = target: Rsk1 (h) (Homo sapiens, UniProt Q15418)
Rsk1 (h), sequence (Q15418 whole entry): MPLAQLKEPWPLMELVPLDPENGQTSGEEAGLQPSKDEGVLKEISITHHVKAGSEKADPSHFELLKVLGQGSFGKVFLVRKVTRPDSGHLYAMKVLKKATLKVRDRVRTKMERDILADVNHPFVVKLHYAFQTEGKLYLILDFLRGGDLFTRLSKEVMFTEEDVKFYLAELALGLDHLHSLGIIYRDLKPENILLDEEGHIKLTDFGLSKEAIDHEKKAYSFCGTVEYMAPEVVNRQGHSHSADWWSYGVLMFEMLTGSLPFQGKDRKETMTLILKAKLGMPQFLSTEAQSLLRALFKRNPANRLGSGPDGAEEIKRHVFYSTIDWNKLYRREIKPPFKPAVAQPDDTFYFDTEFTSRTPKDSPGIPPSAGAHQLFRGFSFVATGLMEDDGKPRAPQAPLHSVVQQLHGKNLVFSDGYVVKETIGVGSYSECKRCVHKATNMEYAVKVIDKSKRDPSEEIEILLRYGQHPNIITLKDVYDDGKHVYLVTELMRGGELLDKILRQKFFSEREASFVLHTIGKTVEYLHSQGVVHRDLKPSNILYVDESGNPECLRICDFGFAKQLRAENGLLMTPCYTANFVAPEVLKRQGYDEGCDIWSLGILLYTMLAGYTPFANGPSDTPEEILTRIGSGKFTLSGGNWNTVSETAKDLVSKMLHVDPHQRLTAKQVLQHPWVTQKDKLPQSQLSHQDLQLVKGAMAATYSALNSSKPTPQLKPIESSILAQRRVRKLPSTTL
Summary of the method: as §1

[4] = target: TrkB (h) (Homo sapiens, UniProt Q16620)
Summary of the method: as §1

[5] = target: Tie2 (h) (Homo sapiens, UniProt Q02763)
Tie2 (h), sequence (Q02763 23-1124): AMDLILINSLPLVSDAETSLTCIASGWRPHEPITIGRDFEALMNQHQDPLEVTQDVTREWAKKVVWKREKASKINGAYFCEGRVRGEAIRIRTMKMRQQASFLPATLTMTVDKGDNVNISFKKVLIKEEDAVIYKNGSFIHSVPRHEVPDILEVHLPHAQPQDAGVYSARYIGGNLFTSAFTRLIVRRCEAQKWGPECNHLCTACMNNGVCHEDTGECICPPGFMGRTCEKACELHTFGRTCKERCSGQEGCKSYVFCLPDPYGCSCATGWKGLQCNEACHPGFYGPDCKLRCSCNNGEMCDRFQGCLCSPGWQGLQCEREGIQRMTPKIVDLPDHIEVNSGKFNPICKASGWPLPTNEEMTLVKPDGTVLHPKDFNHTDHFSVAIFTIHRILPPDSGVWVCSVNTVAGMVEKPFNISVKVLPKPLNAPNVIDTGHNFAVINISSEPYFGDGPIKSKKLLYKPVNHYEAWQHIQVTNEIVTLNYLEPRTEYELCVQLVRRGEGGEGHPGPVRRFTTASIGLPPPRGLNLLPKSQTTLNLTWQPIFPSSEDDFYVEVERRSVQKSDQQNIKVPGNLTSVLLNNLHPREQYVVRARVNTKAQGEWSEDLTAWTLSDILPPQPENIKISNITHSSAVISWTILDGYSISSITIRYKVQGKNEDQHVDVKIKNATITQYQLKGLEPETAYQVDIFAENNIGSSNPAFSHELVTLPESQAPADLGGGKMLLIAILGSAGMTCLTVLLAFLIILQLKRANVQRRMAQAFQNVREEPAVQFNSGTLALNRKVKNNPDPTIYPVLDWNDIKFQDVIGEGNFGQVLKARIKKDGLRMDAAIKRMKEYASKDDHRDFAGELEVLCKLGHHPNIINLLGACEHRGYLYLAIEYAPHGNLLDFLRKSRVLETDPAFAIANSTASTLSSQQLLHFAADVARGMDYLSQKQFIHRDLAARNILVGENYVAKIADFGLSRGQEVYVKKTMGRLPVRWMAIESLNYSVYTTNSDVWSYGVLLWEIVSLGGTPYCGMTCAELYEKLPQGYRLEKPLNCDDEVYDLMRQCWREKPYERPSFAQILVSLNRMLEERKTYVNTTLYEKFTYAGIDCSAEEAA
Summary of the method: as §1

[6] = target: T3, ZAP-70 (h) (Homo sapiens, UniProt P43403)
T3 sequence (P43403 1-619): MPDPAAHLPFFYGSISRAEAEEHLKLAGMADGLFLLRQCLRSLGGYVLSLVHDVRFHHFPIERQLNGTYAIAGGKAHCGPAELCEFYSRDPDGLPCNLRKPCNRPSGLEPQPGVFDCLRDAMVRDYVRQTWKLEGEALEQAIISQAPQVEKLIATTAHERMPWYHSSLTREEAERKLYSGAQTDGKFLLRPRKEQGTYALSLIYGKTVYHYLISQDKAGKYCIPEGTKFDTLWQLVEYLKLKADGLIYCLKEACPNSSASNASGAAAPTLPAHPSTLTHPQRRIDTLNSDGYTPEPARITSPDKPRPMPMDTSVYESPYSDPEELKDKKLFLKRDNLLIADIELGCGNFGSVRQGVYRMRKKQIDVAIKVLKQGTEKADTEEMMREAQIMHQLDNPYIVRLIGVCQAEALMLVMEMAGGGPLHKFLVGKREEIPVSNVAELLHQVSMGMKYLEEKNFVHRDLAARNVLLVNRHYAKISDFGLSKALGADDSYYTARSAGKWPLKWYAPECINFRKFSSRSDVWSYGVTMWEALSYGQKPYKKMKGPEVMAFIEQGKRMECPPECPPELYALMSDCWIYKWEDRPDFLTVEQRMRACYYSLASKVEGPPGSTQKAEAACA
Summary of the method: as §1

[7] = target: T4, PKCγ (h) (Homo sapiens, UniProt P05129)
T4 construct: purchased Millipore
Summary of the method: as §1

[8] = target: Ros (h) (Homo sapiens, UniProt P08922)
Summary of the method: as §1

[9] = target: MEK1 (h) (Homo sapiens, UniProt Q02750)
Summary of the method: as §1

[10] = target: Rsk4 (h) (Homo sapiens, UniProt Q9UK32)
Rsk4 (h), sequence (Q9UK32 whole entry): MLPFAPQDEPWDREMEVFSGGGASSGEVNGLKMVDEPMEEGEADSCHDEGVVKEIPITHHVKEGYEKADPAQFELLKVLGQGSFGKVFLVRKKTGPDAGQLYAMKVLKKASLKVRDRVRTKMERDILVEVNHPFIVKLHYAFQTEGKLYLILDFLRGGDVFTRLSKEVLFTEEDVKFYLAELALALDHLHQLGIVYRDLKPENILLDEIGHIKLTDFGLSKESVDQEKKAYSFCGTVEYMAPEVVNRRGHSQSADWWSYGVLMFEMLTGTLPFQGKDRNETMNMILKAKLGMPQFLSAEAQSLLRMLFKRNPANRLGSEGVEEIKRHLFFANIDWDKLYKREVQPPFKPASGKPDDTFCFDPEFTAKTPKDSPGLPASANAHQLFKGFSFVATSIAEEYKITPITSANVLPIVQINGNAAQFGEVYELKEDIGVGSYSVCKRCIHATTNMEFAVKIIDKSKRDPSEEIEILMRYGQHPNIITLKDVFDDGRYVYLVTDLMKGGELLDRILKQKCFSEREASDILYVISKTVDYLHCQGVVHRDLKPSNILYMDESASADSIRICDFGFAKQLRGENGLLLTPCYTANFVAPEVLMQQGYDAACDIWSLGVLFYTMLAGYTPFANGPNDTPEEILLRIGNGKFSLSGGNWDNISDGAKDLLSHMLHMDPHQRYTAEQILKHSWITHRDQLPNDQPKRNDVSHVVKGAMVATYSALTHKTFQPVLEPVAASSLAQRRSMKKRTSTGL
Summary of the method: as §1

[11] = target: JNK2α2 (h) (Homo sapiens, UniProt P45984)
Summary of the method: as §1

[12] = target: T5, CaMKIIβ (h) (Homo sapiens, UniProt Q13554)
T5 construct: purchased Millipore
T5 sequence (Q13554 whole entry): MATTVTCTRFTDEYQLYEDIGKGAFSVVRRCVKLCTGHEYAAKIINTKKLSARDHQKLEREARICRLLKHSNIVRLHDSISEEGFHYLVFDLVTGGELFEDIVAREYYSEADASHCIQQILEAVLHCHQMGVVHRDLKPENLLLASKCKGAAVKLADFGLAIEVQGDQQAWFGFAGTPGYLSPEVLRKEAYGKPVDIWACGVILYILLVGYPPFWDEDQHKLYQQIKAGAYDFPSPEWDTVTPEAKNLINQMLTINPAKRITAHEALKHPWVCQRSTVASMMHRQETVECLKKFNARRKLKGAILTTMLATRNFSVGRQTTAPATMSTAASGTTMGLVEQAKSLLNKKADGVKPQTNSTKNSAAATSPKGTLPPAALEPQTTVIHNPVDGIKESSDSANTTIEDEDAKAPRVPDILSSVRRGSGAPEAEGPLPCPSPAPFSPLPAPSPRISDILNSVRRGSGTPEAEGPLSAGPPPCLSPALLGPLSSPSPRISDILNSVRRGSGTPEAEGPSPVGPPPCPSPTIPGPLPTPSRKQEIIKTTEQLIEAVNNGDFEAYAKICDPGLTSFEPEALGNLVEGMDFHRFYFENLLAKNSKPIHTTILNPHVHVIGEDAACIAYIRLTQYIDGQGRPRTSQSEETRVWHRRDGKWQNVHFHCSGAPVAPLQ
Summary of the method: as §1

[13] = target: Met(Y1248H) (h) (Homo sapiens, UniProt P08581, Y1230H)
Summary of the method: as §1

| Sequence | % activity [1] | % activity [2] | % activity [3] | % activity [4] | % activity [5] | % activity [6] | % activity [7] | % activity [8] | % activity [9] | % activity [10] | % activity [11] | % activity [12] | % activity [13] |
| --- | --- | --- | --- | --- | --- | --- | --- | --- | --- | --- | --- | --- | --- |
| FAKLAARLYRKALARQLGVAA [MMI-0300] | 94% | 73% | 46% | 5% | 26% | 75% | 89% | 95% | 77% | 90% | 98% | 2% |  |
| HRRIKAWLKKIKALARQLGVAA (Mammalian) [MMI-0500] | 19% | 40% | 34% | 12% | 22% | 1% | 6% | 150% | 21% | 29% | 81% | 3% | 126% |
| KAFAKLAARLYRKALARQLGVAA [MMI-0400] | 83% | 61% | 54% | 8% | 21% | 33% | 79% | 99% | 77% | 91% | 96% | 11% | 63% |
| YARAAARQARAKALNRQLGVA (Mammalian) [MMI-0200] |  |  |  | 7% | 53% | 58% | 101% | 86% |  | 125% |  | 53% | 153% |
